Here are results for ten molecules from US20190183976A1 (GPCR THERAPEUTICS, published 2019).

To fix the notation:
T1: CHRM1 (human, UniProt P11229 1-460)
T1 construct: whole, on cells; Untagged: adenovirus-expressed in U-2 OS or MDA-MB-231 cells, or endogenous in patient derived cells; also called Cholinergic Receptor Muscarinic 1
T1 sequence (looked up): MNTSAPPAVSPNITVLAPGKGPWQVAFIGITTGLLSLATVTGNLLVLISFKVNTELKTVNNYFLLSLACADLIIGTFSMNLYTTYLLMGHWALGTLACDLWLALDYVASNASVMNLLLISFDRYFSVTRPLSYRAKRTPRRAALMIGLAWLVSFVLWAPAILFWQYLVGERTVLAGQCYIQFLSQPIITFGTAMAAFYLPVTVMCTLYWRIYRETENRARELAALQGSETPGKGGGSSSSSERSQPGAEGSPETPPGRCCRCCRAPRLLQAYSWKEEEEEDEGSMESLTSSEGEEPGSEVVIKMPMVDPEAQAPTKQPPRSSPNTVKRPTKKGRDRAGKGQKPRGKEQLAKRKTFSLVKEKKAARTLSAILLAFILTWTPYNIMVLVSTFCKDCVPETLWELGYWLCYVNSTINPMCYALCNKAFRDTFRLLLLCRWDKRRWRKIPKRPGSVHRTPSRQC

B1: GALR1-VC (receptor, human, UniProt P47211 1-349, looked up)
chain: MELAVGNLSEGNASWPEPPAPEPGPLFGIGVENFVTLVVFGLIFALGVLGNSLVITVLARSKPGKPRSTTNLFILNLSIADLAYLLFCIPFQATVYALPTWVLGAFICKFIHYFFTVSMLVSIFTLAAMSVDRYVAIVHSRRSSSLRVSRNALLGVGCIWALSIAMASPVAYHQGLFHPRASNQTFCWEQWPDPRHKKAYVVCTFVFGYLLPLLLICFCYAKVLNHLHKKLKNMSKKSEASKKKTAQTVLVVVVVFGISWLPHHIIHLWAEFGVFPLTPASFLFRITAHCLAYSNSSVNPIIYAFLSENFRKAYKQVFKCHIRKDSHLSDTKESKSRIDTPPSTNCTHV
notes: whole, on cells; Adenovirus-expressed in U-2 OS cells; not shown: VC155, C-terminal fragment of Venus
B2: C5AR1-VC (receptor, human, UniProt P21730 1-350, looked up)
chain: MDSFNYTTPDYGHYDDKDTLDLNTPVDKTSNTLRVPDILALVIFAVVFLVGVLGNALVVWVTAFEAKRTINAIWFLNLAVADFLSCLALPILFTSIVQHHHWPFGGAACSILPSLILLNMYASILLLATISADRFLLVFKPIWCQNFRGAGLAWIACAVAWGLALLLTIPSFLYRVVREEYFPPKVLCGVDYSHDKRRERAVAIVRLVLGFLWPLLTLTICYTFILLRTWSRRATRSTKTLKVVVAVVASFFIFWLPYQVTGIMMSFLEPSSPTFLLLKKLDSLCVSFAYINCCINPIIYVVAGQGFQGRLRKSLPSLLRNVLTEESVVRESKSFTRSTVDTMAQKTQAV
notes: as for B1
B3: ADORA3-VC (receptor, human, UniProt P0DMS8 1-318, looked up)
chain: MPNNSTALSLANVTYITMEIFIGLCAIVGNVLVICVVKLNPSLQTTTFYFIVSLALADIAVGVLVMPLAIVVSLGITIHFYSCLFMTCLLLIFTHASIMSLLAIAVDRYLRVKLTVRYKRVTTHRRIWLALGLCWLVSFLVGLTPMFGWNMKLTSEYHRNVTFLSCQFVSVMRMDYMVYFSFLTWIFIPLVVMCAIYLDIFYIIRNKLSLNLSNSKETGAFYGREFKTAKSLFLVLFLFALSWLPLSIINCIIYFNGEVPQLVLYMGILLSHANSMMNPIVYAYKIKKFKETYLLILKACVVCHPSDSLDTSIEKNSE
notes: as for B1
B4: EDNRB-VC (receptor, human, UniProt P24530 27-442, looked up)
chain: EERGFPPDRATPLLQTAEIMTPPTKTLWPKGSNASLARSLAPAEVPKGDRTAGSPPRTISPPPCQGPIEIKETFKYINTVVSCLVFVLGIIGNSTLLRIIYKNKCMRNGPNILIASLALGDLLHIVIDIPINVYKLLAEDWPFGAEMCKLVPFIQKASVGITVLSLCALSIDRYRAVASWSRIKGIGVPKWTAVEIVLIWVVSVVLAVPEAIGFDIITMDYKGSYLRICLLHPVQKTAFMQFYKTAKDWWLFSFYFCLPLAITAFFYTLMTCEMLRKKSGMQIALNDHLKQRREVAKTVFCLVLVFALCWLPLHLSRILKLTLYNQNDPNRCELLSFLLVLDYIGINMASLNSCINPIALYLVSKRFKNCFKSCLCCWCQSFEEKQSLEEKQSCLKFKANDHGYDNFRSSNKYSSS
notes: as for B1
B5: CALCR-VC (receptor, human, UniProt P30988 25-474, looked up)
chain: AFSNQTYPTIEPKPFLYVVGRKKMMDAQYKCYDRMQQLPAYQGEGPYCNRTWDGWLCWDDTPAGVLSYQFCPDYFPDFDPSEKVTKYCDEKGVWFKHPENNRTWSNYTMCNAFTPEKLKNAYVLYYLAIVGHSLSIFTLVISLGIFVFFRSLGCQRVTLHKNMFLTYILNSMIIIIHLVEVVPNGELVRRDPVSCKILHFFHQYMMACNYFWMLCEGIYLHTLIVVAVFTEKQRLRWYYLLGWGFPLVPTTIHAITRAVYFNDNCWLSVETHLLYIIHGPVMAALVVNFFFLLNIVRVLVTKMRETHEAESHMYLKAVKATMILVPLLGIQFVVFPWRPSNKMLGKIYDYVMHSLIHFQGFFVATIYCFCNNEVQTTVKRQWAQFKIQWNQRWGRRPSNRSARAAAAAAEAGDIPIYICHQELRNEPANNQGEESAEIIPLNIIEQESSA
notes: as for B1
B6: TACR3-VC (receptor, human, UniProt P29371 1-465, looked up)
chain: MATLPAAETWIDGGGGVGADAVNLTASLAAGAATGAVETGWLQLLDQAGNLSSSPSALGLPVASPAPSQPWANLTNQFVQPSWRIALWSLAYGVVVAVAVLGNLIVIWIILAHKRMRTVTNYFLVNLAFSDASMAAFNTLVNFIYALHSEWYFGANYCRFQNFFPITAVFASIYSMTAIAVDRYMAIIDPLKPRLSATATKIVIGSIWILAFLLAFPQCLYSKTKVMPGRTLCFVQWPEGPKQHFTYHIIVIILVYCFPLLIMGITYTIVGITLWGGEIPGDTCDKYHEQLKAKRKVVKMMIIVVMTFAICWLPYHIYFILTAIYQQLNRWKYIQQVYLASFWLAMSSTMYNPIIYCCLNKRFRAGFKRAFRWCPFIKVSSYDELELKTTRFHPNRQSSMYTVTRMESMTVVFDPNDADTTRSSRKKRATPRDPSFNGCSRRNSKSASATSSFISSPYTSVDEYS
notes: as for B1
B7: CHRM1-VC (receptor, human, UniProt P11229 1-460, looked up)
chain: T1 sequence (looked up)
notes: as for B1
B8: APLNR-VC (receptor, human, UniProt P35414 1-380, looked up)
chain: MEEGGDFDNYYGADNQSECEYTDWKSSGALIPAIYMLVFLLGTTGNGLVLWTVFRSSREKRRSADIFIASLAVADLTFVVTLPLWATYTYRDYDWPFGTFFCKLSSYLIFVNMYASVFCLTGLSFDRYLAIVRPVANARLRLRVSGAVATAVLWVLAALLAMPVMVLRTTGDLENTTKVQCYMDYSMVATVSSEWAWEVGLGVSSTTVGFVVPFTIMLTCYFFIAQTIAGHFRKERIEGLRKRRRLLSIIVVLVVTFALCWMPYHLVKTLYMLGSLLHWPCDFDLFLMNIFPYCTCISYVNSCLNPFLYAFFDPRFRQACTSMLCCGQSRCAGTSHSSSGEKSASYSSGHSQGPGPNMGKGGEQMHEKSIPYSQETLVVD
notes: as for B1
B9: ADCYAP1R1-VC (receptor, human, UniProt P41586 21-468, looked up)
chain: MHSDCIFKKEQAMCLEKIQRANELMGFNDSSPGCPGMWDNITCWKPAHVGEMVLVSCPELFRIFNPDQVWETETIGESDFGDSNSLDLSDMGVVSRNCTEDGWSEPFPHYFDACGFDEYESETGDQDYYYLSVKALYTVGYSTSLVTLTTAMVILCRFRKLHCTRNFIHMNLFVSFMLRAISVFIKDWILYAEQDSNHCFISTVECKAVMVFFHYCVVSNYFWLFIEGLYLFTLLVETFFPERRYFYWYTIIGWGTPTVCVTVWATLRLYFDDTGCWDMNDSTALWWVIKGPVVGSIMVNFVLFIGIIVILVQKLQSPDMGGNESSIYLRLARSTLLLIPLFGIHYTVFAFSPENVSKRERLVFELGLGSFQGFVVAVLYCFLNGEVQAEIKRKWRSWKVNRYFAVDFKHRHPSLASSGVNGGTQLSILSKSSSQIRMSGLPADNLAT
notes: as for B1
B10: CXCR4 (receptor, human, UniProt P61073 1-352, looked up)
chain: MEGISIYTSDNYTEEMGSGDYDSMKEPCFREENANFNKIFLPTIYSIIFLTGIVGNGLVILVMGYQKKLRSMTDKYRLHLSVADLLFVITLPFWAVDAVANWYFGNFLCKAVHVIYTVNLYSSVLILAFISLDRYLAIVHATNSQRPRKLLAEKVVYVGVWIPALLLTIPDFIFANVSEADDRYICDRFYPNDLWVVVFQFQHIMVGLILPGIVILSCYCIIISKLSHSKGHQKRKALKTTVILILAFFACWLPYYIGISIDSFILLEIIKQGCEFENTVHKWISITEALAFFHCCLNPILYAFLGAKFKTSAQHALTSVSRGSSLKILSKGKRGGHSSVSTESESSSFHSS
notes: whole, on cells; also called C-X-C Motif Chemokine Receptor 4; CXC receptor 4

The first experiment has as its target T2, CXCR4-VN (human, UniProt P61073 1-352).
T2 construct: whole, on cells; Adenovirus-expressed in U-2 OS cells; also called CXCR4 fused with N-terminal fragment of Venus; not shown: VNm10, N-terminal fragment of Venus (VN154 variant with L46F and L64F)
As to the kind of experiment: BiFC, U-2 OS cells, CXCR4-VN & GPCRx-VC; score=(positive cells/total cells)x100. On the procedure: (§1) Images of about 200 cells from each well were analyzed with Multi-target analysis software in IN Cell Developer ToolBox (GE Healthcare, Waukesha, Wis.). Cell boundary was marked based on Hoechst signal, and fluorescence intensity per cell was measured. Cells with fluorescence intensities higher than background level were considered as BiFC positive cells. […] Positive cells were determined, and positive cell count ratio (“BiFC score”) was calculated as (positive cells/total cells)×100 (see Table 4 below).
In turn, B1 came in with a BiFC score of 60.
Same read-out and setting: with B2 the figure was 42; with B3, 43.
The molecule B4 gave a BiFC score of 41.
Take B5: the BiFC score amounted to 53.
Still for that read-out and setting: with B6 the figure was 33.
Molecule B7 displayed a BiFC score of 24.
The same measure, in the same setting: with B8 the figure was 63; with B9, 23.

The target in the next experiment is T3, ADRB2 (human, UniProt P07550 1-413).
T3 construct: whole, on cells; Untagged: adenovirus-expressed in U-2 OS or MDA-MB-231 cells, or endogenous in patient derived cells and PDX tissue; also called Adrenoceptor Beta 2; Ad-ADRB2
As to the kind of experiment: proximity ligation assay, GBM patient derived cells (endogenous receptors). On the procedure:
(§2) To perform PLA with PDC samples, the patient derived cells were plated and fixed with 4% PFA on sixteen-well tissue culture slides. […] Slides were then washed and incubated (1 h at 37° C.) with secondary anti-rabbit and anti-mouse antibodies conjugated with plus and minus Duolink II PLA probes. Slides were washed again and then incubated with ligation-ligase solution (30 min at 37° C.) followed by incubation with amplification-polymerase solution (2 h at 37° C.).
(§3) PDCs were seeded in 96-chamber slide at 100000 ea /well in 100 ul culture media. […] Slides were then washed and incubated (1 h at 37° C.) with secondary anti-rabbit and anti-mouse antibodies conjugated with plus and minus Duolink II PLA probes. Slides were washed again and then incubated with ligation-ligase solution (30 min at 37° C.) followed by incubation with amplification-polymerase solution (2 h at 37° C.).
In the case of B10, the binding result was “binds”.

In another experiment the target is T1, CHRM1. The experiment is described as above. On the procedure:
as §2, §3
Take B10: the binding result is given as “binds”.

A further experiment has as its target T2, CXCR4-VN. As to the kind of experiment: BiFC, U-2 OS cells, CXCR4-VN & GPCRx-VC; score=(positive cells/total cells)x100. The source holds these as a separate data set. On the procedure: as §1
As for B1, the BiFC score worked out at 60.
For the molecule B8, the BiFC score was determined as 63.
